Laboratory results reported in patent publication US20200046770A1.

Target: PDGF-DD (active, proteolytically processed homodimer) as used in solid-phase binding and SPR (human) (UniProt Q9GZP0)
Experiment: SPR (Biacore T100), PDGF-DD immobilised on CM5 chip, NKp44 18-130-His6 in the mobile phase, steady-state fit for a 1:1 interaction

Chain of PDGF-DD (active, proteolytically processed homodimer) as used in solid-phase binding and SPR (human) (Q9GZP0 184-370 limits assumed, form in doubt): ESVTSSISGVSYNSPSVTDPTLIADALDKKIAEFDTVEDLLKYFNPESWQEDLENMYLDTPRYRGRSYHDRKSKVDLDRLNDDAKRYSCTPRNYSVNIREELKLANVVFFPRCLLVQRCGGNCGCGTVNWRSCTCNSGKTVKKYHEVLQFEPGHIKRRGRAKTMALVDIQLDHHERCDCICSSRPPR

Bacterial expressed NKp44 (residues 18-130 with a C-terminal His6 tag) (from UniProt O95944 18-130) (receptor)
Kd: 3.3 µM
